These results are taken from US20240294983A1 (CALIFORNIA INSTITUTE OF TECHNOLOGY, published 2024).

To fix the notation:
B2: E-cadherin (receptor, human, UniProt P12830 155-882, looked up)
chain: DWVIPPISCPENEKGPFPKNLVQIKSNKDKEGKVFYSITGQGADTPPVGVFIIERETGWLKVTEPLDRERIATYTLFSHAVSSNGNAVEDPMEILITVTDQNDNKPEFTQEVFKGSVMEGALPGTSVMEVTATDADDDVNTYNAAIAYTILSQDPELPDKNMFTINRNTGVISVVTTGLDRESFPTYTLVVQAADLQGEGLSTTATAVITVTDTNDNPPIFNPTTYKGQVPENEANVVITTLKVTDADAPNTPAWEAVYTILNDDGGQFVVTTNPVNNDGILKTAKGLDFEAKQQYILHVAVTNVVPFEVSLTTSTATVTVDVLDVNEAPIFVPPEKRVEVSEDFGVGQEITSYTAQEPDTFMEQKITYRIWRDTANWLEINPDTGAISTRAELDREDFEHVKNSTYTALIIATDNGSPVATGTGTLLLILSDVNDNAPIPEPRTIFFCERNPKPQVINIIDADLPPNTSPFTAELTHGASANWTIQYNDPTQESIILKPKMALEVGDYKINLKLMDNQNKDQVTTLEVSVCDCEGAAGVCRKAQPVEAGLQIPAILGILGGILALLILILLLLLFLRRRAVVKEPLLPPEDDTRDNVYYYDEEGGGEEDQDFDLSQLHRGLDARPEVTRNDVAPTLMSVPRYLPRPANPDEIGNFIDENLKAADTDPTAPPYDSLLVFDYEGSGSEAASLSSLNSSESDKDQDYDYLNEWGNRFKKLADMYGGGEDD
notes: Endogenous membrane protein in fixed human cells or tissue, detected through an unnamed primary antibody and a fractional-initiator secondary antibody probe
B3: β-catenin (other, human, UniProt P35222 2-781, looked up)
chain: ATQADLMELDMAMEPDRKAAVSHWQQQSYLDSGIHSGATTTAPSLSGKGNPEEEDVDTSQVLYEWEQGFSQSFTQEQVADIDGQYAMTRAQRVRAAMFPETLDEGMQIPSTQFDAAHPTNVQRLAEPSQMLKHAVVNLINYQDDAELATRAIPELTKLLNDEDQVVVNKAAVMVHQLSKKEASRHAIMRSPQMVSAIVRTMQNTNDVETARCTAGTLHNLSHHREGLLAIFKSGGIPALVKMLGSPVDSVLFYAITTLHNLLLHQEGAKMAVRLAGGLQKMVALLNKTNVKFLAITTDCLQILAYGNQESKLIILASGGPQALVNIMRTYTYEKLLWTTSRVLKVLSVCSSNKPAIVEAGGMQALGLHLTDPSQRLVQNCLWTLRNLSDAATKQEGMEGLLGTLVQLLGSDDINVVTCAAGILSNLTCNNYKNKMMVCQVGGIEALVRTVLRAGDREDITEPAICALRHLTSRHQEAEMAQNAVRLHYGLPVVVKLLHPPSHWPLIKATVGLIRNLALCPANHAPLREQGAIPRLVQLLVRAHQDTQRRTSMGGTQQQFVEGVRMEEIVEGCTGALHILARDVHNRIVIRGLNTIPLFVQLLYSPIENIQRVAAGVLCELAQDKEAAEAIEAEGATAPLTELLHSRNEGVATYAAAVLFRMSEDKPQDYKKRLSVELTSSLFRTEPMAWNETADLGLDIGAQGEPLGYRQDDPSYRSFHSGGYGQDALGMDPMMEHEMGGHHPGADYPVDGLPDLGHAQDLMDGLPPGDSNQLAWFDTDL
notes: Endogenous protein in fixed human cells or tissue, detected through an unnamed primary antibody and a fractional-initiator secondary antibody probe

Substrate in assay [1]: SON (human) (UniProt P18583)
In words: HCR proximity imaging of the endogenous complex in fixed A-431 human cells; background from controls omitting the antibodies to one protein; SEM, N=3 cells.

The assay “β-catenin” concerns the target B3. Description: HCR proximity imaging; A-431 cells positive sample, HeLa cells negative sample. On the procedure: (§1) For each pair of sample types, signal-to-background was calculated using the positive sample type to estimate signal plus background and the negative sample type to estimate background.
(§2) While A-431 cells formed the β-catenin:E-cadherin complex at the cell membrane of intercellular junctions,⁶³ HeLa cells express N-cadherin rather than E-cadherin^{64,65} and therefore lacked the β-catenin:E-cadherin complex.

The target in assay [2] is B2. Description: HCR proximity imaging; A-431 cells (positive) against HeLa cells (negative, lacking E-cadherin); mean±SEM, N=3 wells. As to the method:
as §1, §2

The target in assay [3] is B2. Description: HCR proximity imaging in FFPE human breast tissue section; background from a region with low/no complex; SEM, N=3 regions. On the procedure:
FIG. 16 depicts imaging the β-catenin:E-cadherin target complex in a highly autofluorescent FFPE human breast tissue section (5-μm thickness) using a pair of fractional-initiator probes, a proximity probe, and an HCR amplifier. Background was assessed by fluorescence in a region of the sample in which there is low/no abundance of the protein:protein complex. A high signal-to-background ratio was obtained (70±20) (standard error of the mean, N=3 representative regions).

Assay [4] has as its target B2. In words: HCR proximity imaging; normal against invasive lobular carcinoma FFPE human breast tissue sections; mean±SEM, N=3 sections. On the procedure:
as §1
The β-catenin:E-cadherin target complex was detected in highly autofluorescent FFPE human breast tissue sections. The β-catenin:E-cadherin complex is robustly formed in normal breast epithelial cells, but the expression of and interaction between the β-catenin and E-cadherin proteins is interrupted when breast epithelial cells become cancerous in the invasive lobular carcinoma disease process.^{66,67} Paired normal and invasive lobular carcinoma FFPE breast tissue sections from the same patient were evaluated for the β-catenin:E-cadherin target complex, yielding strong HCR signal in normal breast tissue (FIG. 45C; positive sample) and no visible staining in cancerous tissue (FIG. 45D; negative sample), with a signal-to-background ratio of 30±3 between the two tissue types (mean±SEM for representative regions of N=3 replicate sections).

The target in assay [5] is B2. In words: HCR proximity imaging of the endogenous complex in fixed A-431 human cells; background from controls omitting the antibodies to one protein; SEM, N=3 cells. On the procedure: For each protein:protein complex, background was assessed by technical controls in which the antibodies corresponding to one protein of the complex were omitted, simulating a scenario in which the two proteins are not in a complex with one another. For each of three protein:protein target complexes, a high signal-to-background ratio was obtained: 170±10 (SC35:SON), 50±10 (β-catenin:E-cadherin), and 140±10 (α-tubulin:β-tubulin) (standard error of the mean, representative regions within N=3 cells).

Sequence of SON (human) (P18583 2-2426 limits assumed): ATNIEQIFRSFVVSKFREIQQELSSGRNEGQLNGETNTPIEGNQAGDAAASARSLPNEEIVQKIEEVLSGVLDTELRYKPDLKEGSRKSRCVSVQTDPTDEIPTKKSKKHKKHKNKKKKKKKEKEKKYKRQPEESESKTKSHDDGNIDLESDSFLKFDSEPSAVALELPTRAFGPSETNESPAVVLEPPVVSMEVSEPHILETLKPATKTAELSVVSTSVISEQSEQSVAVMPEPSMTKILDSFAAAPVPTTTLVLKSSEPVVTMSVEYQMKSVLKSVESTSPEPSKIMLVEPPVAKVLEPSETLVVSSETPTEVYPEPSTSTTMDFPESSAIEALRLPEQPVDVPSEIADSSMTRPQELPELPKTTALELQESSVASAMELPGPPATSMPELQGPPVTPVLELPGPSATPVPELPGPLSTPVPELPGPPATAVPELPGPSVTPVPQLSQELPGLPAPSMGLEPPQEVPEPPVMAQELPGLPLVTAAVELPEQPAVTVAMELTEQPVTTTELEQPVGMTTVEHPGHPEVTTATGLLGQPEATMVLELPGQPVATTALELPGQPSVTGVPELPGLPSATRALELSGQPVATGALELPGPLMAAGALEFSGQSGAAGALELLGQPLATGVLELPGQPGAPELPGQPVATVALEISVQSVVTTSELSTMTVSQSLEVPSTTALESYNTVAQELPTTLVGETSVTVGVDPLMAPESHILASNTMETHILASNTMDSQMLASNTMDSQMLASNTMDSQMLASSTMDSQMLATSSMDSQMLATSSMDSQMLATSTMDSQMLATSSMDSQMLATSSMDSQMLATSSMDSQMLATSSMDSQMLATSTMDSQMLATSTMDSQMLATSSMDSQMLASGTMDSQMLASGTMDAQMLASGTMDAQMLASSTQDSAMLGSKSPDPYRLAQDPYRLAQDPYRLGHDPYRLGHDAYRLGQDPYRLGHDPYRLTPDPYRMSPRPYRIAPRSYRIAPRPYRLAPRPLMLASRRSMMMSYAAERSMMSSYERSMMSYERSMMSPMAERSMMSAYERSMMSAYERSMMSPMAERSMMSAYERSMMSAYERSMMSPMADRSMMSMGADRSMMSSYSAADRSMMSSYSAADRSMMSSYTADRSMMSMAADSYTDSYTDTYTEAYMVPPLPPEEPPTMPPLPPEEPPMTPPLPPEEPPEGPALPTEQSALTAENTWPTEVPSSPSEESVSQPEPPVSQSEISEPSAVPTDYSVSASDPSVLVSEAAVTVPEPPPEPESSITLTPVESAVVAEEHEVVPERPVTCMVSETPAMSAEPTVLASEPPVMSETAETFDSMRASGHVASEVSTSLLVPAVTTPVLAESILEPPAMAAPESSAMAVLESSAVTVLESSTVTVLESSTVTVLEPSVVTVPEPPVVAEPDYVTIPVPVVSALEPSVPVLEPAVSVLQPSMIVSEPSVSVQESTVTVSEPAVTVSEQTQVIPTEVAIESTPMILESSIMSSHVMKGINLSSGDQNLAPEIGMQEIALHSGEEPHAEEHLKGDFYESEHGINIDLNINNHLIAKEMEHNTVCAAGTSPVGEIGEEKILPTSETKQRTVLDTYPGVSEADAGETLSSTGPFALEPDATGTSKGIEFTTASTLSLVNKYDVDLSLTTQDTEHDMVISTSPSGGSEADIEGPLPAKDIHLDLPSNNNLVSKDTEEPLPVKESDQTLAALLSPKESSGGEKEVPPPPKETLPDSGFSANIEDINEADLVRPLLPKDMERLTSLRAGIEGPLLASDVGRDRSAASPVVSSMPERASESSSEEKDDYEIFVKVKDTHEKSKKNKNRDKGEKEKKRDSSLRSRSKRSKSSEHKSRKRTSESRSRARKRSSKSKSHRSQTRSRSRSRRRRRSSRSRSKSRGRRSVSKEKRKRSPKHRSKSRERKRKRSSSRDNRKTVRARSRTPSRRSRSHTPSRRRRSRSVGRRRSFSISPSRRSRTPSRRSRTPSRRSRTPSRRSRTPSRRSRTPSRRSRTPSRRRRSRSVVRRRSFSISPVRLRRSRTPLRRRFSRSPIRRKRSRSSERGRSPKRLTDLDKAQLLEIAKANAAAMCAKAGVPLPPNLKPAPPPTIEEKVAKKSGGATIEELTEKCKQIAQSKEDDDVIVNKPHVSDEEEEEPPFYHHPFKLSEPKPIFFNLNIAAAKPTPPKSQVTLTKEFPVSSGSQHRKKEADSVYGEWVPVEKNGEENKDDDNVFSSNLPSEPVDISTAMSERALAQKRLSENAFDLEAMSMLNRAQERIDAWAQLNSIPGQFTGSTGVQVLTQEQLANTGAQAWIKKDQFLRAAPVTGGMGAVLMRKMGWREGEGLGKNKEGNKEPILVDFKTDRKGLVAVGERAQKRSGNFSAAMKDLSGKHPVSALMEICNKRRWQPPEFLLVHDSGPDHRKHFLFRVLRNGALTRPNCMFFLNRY

B1: SC35 (protein, human, UniProt Q01130 2-221, looked up)
chain: SYGRPPPDVEGMTSLKVDNLTYRTSPDTLRRVFEKYGRVGDVYIPRDRYTKESRGFAFVRFHDKRDAEDAMDAMDGAVLDGRELRVQMARYGRPPDSHHSRRGPPPRRYGGGGYGRRSRSPRRRRRSRSRSRSRSRSRSRSRYSRSKSRSRTRSRSRSTSKSRSARRSKSKSSSVSRSRSRSRSRSRSRSPPPVSKRESKSRSRSKSPPKSPEEEGAVSS
On to B1, for which the signal-to-background ratio in assay [1] is 170.
With B2, the binding result in the assay with β-catenin is “binds”.
For the molecule B3, the signal-to-background ratio with E-cadherin [2] turned out to be 26; with E-cadherin [3], 70; in the assay with E-cadherin [4], 30; with E-cadherin [5], 50.
